As usually defined, the IC50 is the concentration that inhibits the measured activity by half. As a reminder, the EC50 is the concentration that produces a half-maximal response.

The record followed here is patent publication US20100028347A1 (Eli Lilly, published 2010).

The target of assay [1] is T1, soluble recombinant human VEGFR-1 alkaline phosphatase (human, UniProt P17948 27-758).
T1 construct: Made in house in stably transfected cells; also called rhuVEGFR-I AP; VEGFR-I AP; not shown: alkaline phosphatase fusion partner
T1 sequence (P17948 27-758): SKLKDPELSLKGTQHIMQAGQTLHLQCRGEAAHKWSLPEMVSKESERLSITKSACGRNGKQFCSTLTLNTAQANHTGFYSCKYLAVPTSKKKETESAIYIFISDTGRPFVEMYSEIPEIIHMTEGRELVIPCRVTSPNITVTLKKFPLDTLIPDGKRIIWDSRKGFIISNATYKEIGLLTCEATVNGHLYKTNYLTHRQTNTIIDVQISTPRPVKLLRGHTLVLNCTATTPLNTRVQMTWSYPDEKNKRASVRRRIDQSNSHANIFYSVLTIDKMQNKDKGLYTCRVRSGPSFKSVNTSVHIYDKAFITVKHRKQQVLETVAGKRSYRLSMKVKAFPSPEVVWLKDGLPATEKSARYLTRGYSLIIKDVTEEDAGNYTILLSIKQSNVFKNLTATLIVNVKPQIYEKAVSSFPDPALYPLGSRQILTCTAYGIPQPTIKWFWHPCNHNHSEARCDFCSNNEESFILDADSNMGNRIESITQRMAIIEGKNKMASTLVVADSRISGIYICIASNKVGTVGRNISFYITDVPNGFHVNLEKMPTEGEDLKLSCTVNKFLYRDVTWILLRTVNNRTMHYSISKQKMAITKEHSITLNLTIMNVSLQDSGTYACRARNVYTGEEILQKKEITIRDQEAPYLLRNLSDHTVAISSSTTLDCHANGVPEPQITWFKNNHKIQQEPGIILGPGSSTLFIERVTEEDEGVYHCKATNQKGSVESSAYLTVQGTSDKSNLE
Put plainly: blocking ELISA: antibody preincubated with VEGFR-1 AP, binding to VEGF coated plate. On the procedure:
(§1) Specifically, hybridoma supernatants or purified antibodies were diluted in PBS with 5% FBS and 0.05% Tween 20 (ELISA buffer) and incubated in rhuVEGFR-I AP or AP coated 96-well microtiter plates for 30 minutes. Plates were washed with the ELISA buffer and incubated with goat anti-mouse IgG-horseradish peroxidase (HRP) conjugate (BioSource International, Camarillo, Calif.) for 30 minutes. TMB (3,3′,5,5′-tetra-methylbenzidine) substrate (Kierkegaard and Perry Lab, Inc., Gaithersburg, Md.) was used for color development following the manufacturer's instruction. The absorbance at 450 nanometers (nm) was read for quantification of binding activity of antibodies. For identification of the hybridomas producing anti-VEGFR-I antibodies, hybridoma supernatants were preincubated with VEGFR-I AP for 1 hour. The mixtures were incubated with the ELISA buffer in VEGF or P1GF coated 96-well microtiter plates for 1 hour. PNPP (p-nitrophenyl phosphate) substrate for AP was used for color development following the manufacturer's instruction. The absorbance at 405 nm was read for quantification of VEGFR-I binding to VEGF or P1GF. Optical density (OD) values were read on a microtiter plate reader (Molecular Devices Corp., Sunnyvale, Calif.). ED50 and IC50 of the antibodies were analyzed using GraphPad Prism 3 software (GraphPad Software, Inc., San Diego, Calif.).
On the technique in general: An ELISA detects its analyte on a solid surface through an enzyme-linked reagent.

In another assay the target is T2, mouse VEGFR-1 Fc (mouse, UniProt P35969 23-759, limits assumed).
T2 construct: not shown: Fc part; not described
T2 sequence (looked up): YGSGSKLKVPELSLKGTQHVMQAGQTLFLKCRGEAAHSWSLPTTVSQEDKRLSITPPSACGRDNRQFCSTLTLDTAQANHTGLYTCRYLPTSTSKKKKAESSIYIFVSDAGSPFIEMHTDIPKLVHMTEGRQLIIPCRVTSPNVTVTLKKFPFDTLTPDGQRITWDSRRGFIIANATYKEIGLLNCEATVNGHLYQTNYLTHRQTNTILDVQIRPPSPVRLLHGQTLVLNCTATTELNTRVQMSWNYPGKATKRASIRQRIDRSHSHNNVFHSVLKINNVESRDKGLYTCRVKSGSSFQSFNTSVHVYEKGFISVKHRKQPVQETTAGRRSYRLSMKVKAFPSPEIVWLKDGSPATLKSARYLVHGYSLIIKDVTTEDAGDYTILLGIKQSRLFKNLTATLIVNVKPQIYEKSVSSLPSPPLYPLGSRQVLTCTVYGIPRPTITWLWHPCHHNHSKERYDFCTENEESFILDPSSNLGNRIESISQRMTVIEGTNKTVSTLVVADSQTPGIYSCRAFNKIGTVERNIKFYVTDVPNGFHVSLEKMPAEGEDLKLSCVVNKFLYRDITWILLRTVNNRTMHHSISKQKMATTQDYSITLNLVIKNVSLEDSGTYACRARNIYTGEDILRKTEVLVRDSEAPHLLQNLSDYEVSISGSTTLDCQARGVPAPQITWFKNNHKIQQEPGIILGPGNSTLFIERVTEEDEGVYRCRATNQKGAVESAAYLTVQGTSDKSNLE
As to the kind of experiment: ELISA: antibody dilutions on plate coated with 1 µg/ml mouse VEGFR-1 Fc, HRP secondary, O.D. 450. On the procedure:
To determine the specificity of an anti-VEGFR-1 monoclonal antibody to human VEGFR-I, purified antibodies 18F1 were tested in an ELISA-based assay. One μg/ml of recombinant human VEGFR-I Fc, mouse VEGFR-I Fc, mouse VEGFR-2 Fc, or human VEGFR-2 alkaline phosphatase was coated with PBS in a 96-well microtiter plates at 4° C. over night. After wash, the receptor coated plates were blocked with PBS containing 5% Dry Milk and 0.05% Tween 20. Serial dilutions of primary antibody 18F1 to human VEGFR-I, MF1 to mouse VEGFR-I, IC1 1 to human VEGFR-2, or DClOl to mouse VEGFR-2 were incubated in the receptor-coated plates for 30 minutes. After wash secondary anti-primary HRP conjugate antibodies was incubated in the plates for 30 minutes. Plates were washed and incubated with the substrate TMB (3,3′,5,5′-tetra-methylbenzidine) for color development. The absorbance at 450 nm was read as OD values for quantification of binding activity of antibodies. Data were analyzed using a GraphPad Prism Software.

Assay [2] has as its target native VEGFR-1 expressed on the cell surface (human, UniProt P17948 27-1338). As to the kind of experiment: cell-based or functional assay.
Assay [3] addresses T1, soluble recombinant human VEGFR-1 …. Put plainly: ELISA, purified antibody on rhuVEGFR-1 AP coated plate (given as ED50). Here is the method:
as §1

The target is the same in assay [4]. Put plainly: blocking ELISA: antibody preincubated with VEGFR-1 AP, binding to PlGF coated plate. On the procedure: as §1

Chain of native VEGFR-1 expressed on the cell surface (P17948 27-1338): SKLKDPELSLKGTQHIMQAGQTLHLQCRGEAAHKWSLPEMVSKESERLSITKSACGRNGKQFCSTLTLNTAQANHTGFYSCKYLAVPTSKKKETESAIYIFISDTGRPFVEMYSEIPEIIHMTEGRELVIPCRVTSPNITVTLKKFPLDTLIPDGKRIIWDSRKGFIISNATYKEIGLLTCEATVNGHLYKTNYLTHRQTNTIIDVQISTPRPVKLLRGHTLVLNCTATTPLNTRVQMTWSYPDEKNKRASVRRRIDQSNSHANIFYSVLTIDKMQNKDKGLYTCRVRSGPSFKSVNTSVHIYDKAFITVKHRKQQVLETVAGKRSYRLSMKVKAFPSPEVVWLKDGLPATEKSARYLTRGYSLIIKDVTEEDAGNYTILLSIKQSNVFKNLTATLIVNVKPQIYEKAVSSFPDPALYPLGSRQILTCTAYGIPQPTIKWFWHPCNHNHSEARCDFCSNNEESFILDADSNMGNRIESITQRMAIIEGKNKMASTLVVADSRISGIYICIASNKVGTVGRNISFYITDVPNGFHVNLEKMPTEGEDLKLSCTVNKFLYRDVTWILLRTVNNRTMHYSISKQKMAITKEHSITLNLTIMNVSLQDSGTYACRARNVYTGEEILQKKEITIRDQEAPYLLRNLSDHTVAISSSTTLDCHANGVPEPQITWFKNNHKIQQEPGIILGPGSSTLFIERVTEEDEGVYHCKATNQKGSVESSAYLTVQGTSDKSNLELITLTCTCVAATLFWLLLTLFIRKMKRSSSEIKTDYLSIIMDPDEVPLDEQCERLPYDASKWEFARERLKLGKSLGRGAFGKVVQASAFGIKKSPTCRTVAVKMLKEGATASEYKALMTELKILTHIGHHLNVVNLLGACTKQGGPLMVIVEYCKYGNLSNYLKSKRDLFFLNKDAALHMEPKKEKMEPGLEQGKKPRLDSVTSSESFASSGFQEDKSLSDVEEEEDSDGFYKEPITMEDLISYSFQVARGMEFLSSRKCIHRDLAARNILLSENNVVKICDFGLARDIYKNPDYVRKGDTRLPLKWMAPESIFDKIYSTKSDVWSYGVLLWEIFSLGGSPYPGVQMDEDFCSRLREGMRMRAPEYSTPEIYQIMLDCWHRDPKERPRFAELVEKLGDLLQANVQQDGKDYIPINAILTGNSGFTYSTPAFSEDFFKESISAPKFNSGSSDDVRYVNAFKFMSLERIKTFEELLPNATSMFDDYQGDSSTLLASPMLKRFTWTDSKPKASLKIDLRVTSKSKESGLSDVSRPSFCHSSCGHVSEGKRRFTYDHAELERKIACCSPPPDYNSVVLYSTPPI

B1: anti-human VEGFR-1 antibody 18F1 (antibody, V domains shown)
VH: QAQVVESGGGVVQSGRSLRLSCAASGFAFSSYGMHWVRQAPGKGLEWVAVIWYDGSNKYYADSVRGRFTISRDNSENTLYLQMNSLRAEDTAVYYCARDHYGSGVHHYFYYGLDVWGQGTTVTVSS
VL: not shown
notes: Fully human antibody (gamma heavy chain, kappa light chain) from hybridomas of KM transgenic mice, purified; The light chain entry runs a few residues into the kappa constant region; also called MC-18F1; IMC-18F1
For B1, the 50% inhibitory concentration (IC50) in assay [1] was 0.84 nM; in assay [4], 0.55 nM. Besides, the binding result with mouse VEGFR-1 Fc was “no binding (tested: 1 µg/ml)”. Further, the “Inhibition of PlGF-induced DU4475 cell growth in vitro (IC50)” value in assay [2] was 24 nM. The EC50 in assay [3] was determined as 0.1 nM.
